The chains are these.
B1: TPR 5TU (parent)
chain: GGAUCUUCUCGAUCUAACAAAAAAGACAAAUCUGCCACAAAGCUUGAGAGCAUCUUCGGAUGCAGAGGCGGCAGCCUUCGGUGGCGCGAUAGCGCCAACGUUCUCAACUAUGACACGCAAAACGCGUGCUCCGUUGAAUGGAGUUUAUCAUG

Fewer inactive variants are shown than the library holds. A value given as a limit tells only on which side of the number the result lay.

Variants of B1 are the subject of the series. Nature of the series: polymerase ribozyme fitness, log enrichment relative to wild type (log ratio); higher = more active; in vitro selection for triplet polymerase activity. In a few lines: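 Mutant libraries of both subunits of a heterodimeric triplet polymerase ribozyme were PCR-built, transcribed, and selected once in triplicate, with frozen incubation at −7 °C and capture of gel-excised extended constructs on streptavidin beads before RT-PCR. Illumina sequencing of input and output libraries was filtered to genotypes with ≥10 input reads and ≥1 read per output. Fitness is the logarithm of genotype enrichment over wild-type enrichment, using inverse-variance-weighted replicate averages. The logarithm is base 2.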
Regarding G83A A119C, the “polymerase ribozyme fitness (log ratio)” value was -2.44.
For G84A C118A U146C the value was -1.34; for G83A A98U, -0.299; for U82G G94U, -0.833.
For U82G C95A the value was -1.03; for G83A U104G A122U U134G, -3.23.
U82G G128U: the “polymerase ribozyme fitness (log ratio)” value is -3.35.
Take G81C G84U G126C: the “polymerase ribozyme fitness (log ratio)” value is -2.04.
Then U82G C85U A107U, with -3.59; and G81C C125A G140C, with -3.98; and G83U C93U C96G U135A, with -2.89.
Turning to G83U C103G A107U, the “polymerase ribozyme fitness (log ratio)” value is at most -4.2.
As to G81A C118A U148C, the “polymerase ribozyme fitness (log ratio)” value is -2.6.
In the case of G83U G117U, the “polymerase ribozyme fitness (log ratio)” value is -0.498.
As for G83A A115C A122U U134A, the “polymerase ribozyme fitness (log ratio)” value is -3.03.
For G84A C85U G143A the value was -1.63; for G84A G136A U148C, -1.66; for G81A G86A, -1.56.
Consider G83A G86U C118U, for which the “polymerase ribozyme fitness (log ratio)” value was -3.81.
In the case of G81C C93U U101G, the “polymerase ribozyme fitness (log ratio)” value turned out to be 0.439.
For U82C G84A A98U A115U G141A the value was -2.58.
Consider G83U G92A C125G A138G U151A, for which the “polymerase ribozyme fitness (log ratio)” value is at most -4.2.
With G83A G117C U145G, the “polymerase ribozyme fitness (log ratio)” value was -1.38.
Consider G84A C99U G100U U144A, for which the “polymerase ribozyme fitness (log ratio)” value was -4.12.
Regarding G81U C96U A150C, the “polymerase ribozyme fitness (log ratio)” value was -3.33.
For U82C A115U G136C the value was -3.84.
G81A G152U: the “polymerase ribozyme fitness (log ratio)” value is -3.09.
For G81A G152C, the “polymerase ribozyme fitness (log ratio)” value was -3.29.
As to G83U A121C A142U, the “polymerase ribozyme fitness (log ratio)” value is -1.46.
For U82G G86U C123U, the “polymerase ribozyme fitness (log ratio)” value was -1.47.
As to U82A A115U U135A, the “polymerase ribozyme fitness (log ratio)” value is -2.53.
For G83A U101G A106U U145C the value was -2.55.
Then G83U G143U, with -1.68.
Then G83C C93U C96A, with -1.71; and U82G G86A A120G, with -1.53; and U82A U146A, with -0.606.
With G81A C85U A91U G124C U134A, the “polymerase ribozyme fitness (log ratio)” value is at most -4.2.
Then U82A A107U, with -2.79; and U82C G83A C103U, with -0.585.
On to G84A C132G, for which the “polymerase ribozyme fitness (log ratio)” value is -3.59.
With G81A C93U C95U, the “polymerase ribozyme fitness (log ratio)” value is -1.11.
For G83A C96U C118U the value was -0.697; for G83C C105G G126A, -2.8.
Turning to G81C G141C, the “polymerase ribozyme fitness (log ratio)” value was -0.0339.
For U82G A89U A91U A98U G100C, the “polymerase ribozyme fitness (log ratio)” value is at most -4.2.
For G83A C95U, the “polymerase ribozyme fitness (log ratio)” value was -0.657.
For the variant G83A C95G, the “polymerase ribozyme fitness (log ratio)” value was -1.23.
Then G84A G133C G141C, with -2.83; and U82A C103G A113U A137C U148A, with at most -4.2.
Then U82G A137C, with -2.98.
For G81A C87U A97U, the “polymerase ribozyme fitness (log ratio)” value is -1.53.
For U82A C125G the value was -0.33; for U82A C125A, -0.504.
With G81A A91G C99G A120C, the “polymerase ribozyme fitness (log ratio)” value was -4.
For G81C A89U C96G the value was -0.784.
Consider G83C G152C, for which the “polymerase ribozyme fitness (log ratio)” value is -3.16.
Consider G83C A106G, for which the “polymerase ribozyme fitness (log ratio)” value is -0.352.
For G84A A110U the value was -3.36; for U82G C96A, 0.287; for U82G C96U, -2.13.
As to U82G A121G, the “polymerase ribozyme fitness (log ratio)” value was -0.49.
As to G84A C118A, the “polymerase ribozyme fitness (log ratio)” value was -1.61.
Take G81C C85G C95G: the “polymerase ribozyme fitness (log ratio)” value was -3.07.
As to G83A C93U, the “polymerase ribozyme fitness (log ratio)” value was -1.36.
For G81U G84A, the “polymerase ribozyme fitness (log ratio)” value was -1.28.
Turning to G81C C132G, the “polymerase ribozyme fitness (log ratio)” value was -3.75.
G83C C116A A121C: the “polymerase ribozyme fitness (log ratio)” value is 0.158.
Take G83A C95U A106C A107G: the “polymerase ribozyme fitness (log ratio)” value is -3.5.
Regarding G83U U146A, the “polymerase ribozyme fitness (log ratio)” value was -1.19.
As for G83U A98C A115G, the “polymerase ribozyme fitness (log ratio)” value was -1.62.
On to G84A A98C C105G U148C, for which the “polymerase ribozyme fitness (log ratio)” value is -3.35.
For the variant G84A A89G, the “polymerase ribozyme fitness (log ratio)” value is -1.6.
G81A C95A: the “polymerase ribozyme fitness (log ratio)” value was -0.0952.
Then G83U A115C, with -0.337.
Turning to U82C C95G, the “polymerase ribozyme fitness (log ratio)” value was -2.63.
For G83A U102C C103G U145G the value was at most -4.2; for G81A G140C, -2.67; for G81C C87A A91U C93U C114G A138C G141C, at most -4.2.
Consider G83U A120U A137C, for which the “polymerase ribozyme fitness (log ratio)” value was -3.31.
With G84A C105U, the “polymerase ribozyme fitness (log ratio)” value amounted to 0.191.
As for G84A G94A A98C G124A, the “polymerase ribozyme fitness (log ratio)” value was -0.811.
For the variant G81U C85U A115C G136C, the “polymerase ribozyme fitness (log ratio)” value was -3.36.
Consider G84A A98G C105A, for which the “polymerase ribozyme fitness (log ratio)” value is -1.05.
Consider G83C A115U A120U, for which the “polymerase ribozyme fitness (log ratio)” value was -1.99.

Source of the values: the RNAGym collection of RNA variant scans (doi:10.1073/pnas.2313332121).
